Here are results for one molecule from patent publication US11643670B2, “Methods of enhancing chromosomal homologous recombination” (Massachusetts Institute of Technology, priority 2018, dated 2023).

In this test the test system is maternal Chd2 locus. The experiment in a line: Donor-free interchromosomal homologous recombination (ICHR) in IVF-derived Chd2^R1684H/+ embryos. Format: cell-based, mouse. The method, then:
tracrRNA, crRNAs, and ssODNs were synthesized by Integrated DNA Technologies (TABLE 1). All injection mixtures were prepared in a final volume of 50 μL according to the following methodology: Using RNase-free water, reagents, and consumables, crRNA (final concentration 0.61 μM), tracrRNA (final concentration 0.61 μM), and ultrapure Tris-HCl, pH 7.39 (final concentration 10 mM, ThermoFisher) were mixed and incubated at 95° C. for 5 minutes. The mixtures were cooled to room temperature for 10 minutes on the benchtop, and then, EnGen Cas9-NLS S. pyogenes (New England Biolabs) was added to a final concentration of 30 ng/μL. The mixtures were incubated at 37° C. for 15 minutes before adding any remaining components: ssODN (final concentration 3 ng/μL or 30 ng/μL), RAD51 (Creative Biomart, final concentration 10 ng/μL). Injection mixtures were stored on ice and briefly heated to 37° C. prior to injection. For experiments utilizing RS-1, embryos were cultured in KSOM-AA (EMD Millipore MR-121-D) with […] RS-1 (Sigma) dissolved in DMSO or DMSO (Sigma, 1:1000) for 24 hours, washed, and cultured in EmbryoMax FHM HEPES Buffered Medium (Sigma) until collection for genotyping.
For experiments using wildtype recombinant proteins, the following proteins were used: RAD51 (Creative Biomart RAD51-134H), USP1/WDR48 (Creative Biomart USP1&WDR48-1067H), BCCIP (Origene TP303061), XRCC1 (TP304952), XRCC4 (Origene TP312684), DMC1 (Origene TP318311). For experiments using mutant RAD51, custom RAD51 preparations were produced by Creative Biomart according to their standard protocol for producing the wildtype RAD51 used in all other experiments. Mutant DNA sequences used for cloning are described in TABLE 2. All RAD51 mutants were modeled in human RAD51 transcript variant 4 (NCBI accession NM_001164269), as this is the transcript variant of the wildtype RAD51-134H protein used in all other experiments.
In vitro fertilization was performed using FERTIUP® Mouse Preincubation Medium and CARD MEDIA (Kyudo Company) according to the manufacturer's protocol. Non-virgin Chd2^R1684H/R1684H males that were >8 weeks old were used as sperm donors. Following IVF, embryos were cultured for 8 hours and then injected using the PNI protocol described below.
For all experiments except those described in FIG. 6, the male pronucleus was injected. Injections performed for the CPI portion of FIG. 6 were targeted to the cytoplasm. All microinjections were performed using a Narishige Micromanipulator, Nikon Eclipse TE2000-S microscope, and Eppendorf 5242 microinjector. Individual zygotes were injected with 1-2 pL of injection mixture using an “automatic” injection mode set according to needle size and adjusted for clear increase in pronuclear volume. Following injections, cells were cultured in KSOM-AA until collection for genotyping. For experiments giving rise to F0 animals, embryos were surgically implanted into pseudopregnant CD-1 females (Charles River Laboratories, Strain Code 022) 24-hours post-injection and allowed to develop normally until natural birth.
Embryos were collected at morula-to-blastocyst stage in 4 μL nuclease-free water. After collection, 4 μL of 2× embryo digestion buffer was added to each sample (final concentrations: 125 μg/mL proteinase K, 100 mM Tris-HCl pH 8.0, 100 mM KCl, 0.02% gelatin, 0.45% Tween-20, 60 μg/mL yeast tRNA) and embryos were lysed for 1 hour at 56° C. Proteinase K was inactivated via incubation at 95° C. for 10 minutes and DNA was stored at −20° C. until use.
Chd2^R1684H genotyping was performed via a two-step, nested approach. Except for experiments described in FIGS. 3A-3G, all 8 μL of embryo DNA were used as input for the initial, long round of PCR. Genotyping of mouse pups and adult animals was performed using 2 μL of purified tail DNA. For all embryo genotyping, reactions mixtures were set up in a UV-sterilized laminar flow hood using sterile reagents and filter tips to avoid contamination. […]

Where [1] appears, read: compared to embryos injected with wildtype RAD51.

B1: G151D: recombinant RAD51 gain-of-function mutant with increased strand exchange activity, SEQ ID NO: 8 (protein)
chain: MAMQMQLEANADTSVEEESFGPQPISRLEQCGINANDVKKLEEAGFHTVEAVAYAPKKELINIKGISEAKADKILTESRSVARLECNSVILVYCTLRLSGSSDSPASASRVVGTTGGIETGSITEMFGEFRTGKTQICHTLAVTCQLPIDRDGGEGKAMYIDTEGTFRPERLLAVAERYGLSGSDVLDNVAYARAFNTDHQTQLLYQASAMMVESRYALLIVDSATALYRTDYSGRGELSARQMHLARFLRMLLRLADEFGVAVVITNQVVAQVDGAAMFAADPKKPIGGNIIAHASTTRLYLRKGRGETRICKIYDSPCLPEAEAMFAINADGVGDAKD
Turning to B1, the “efficiency of ICHR stimulation” value is reported as ~100% and the “indel-to-ICHR ratio (level)” value is on record as “near zero”. For the same molecule, for the setting “27 injected zygotes”, the indel events result is listed as “not a single indel event was identified”. The apparent editing efficiency (blastocysts from Cas9/crRNA/tracrRNA-injected embryos) is listed as 22%. In addition, the “ICHR rate compared with baseline (Cas9-only embryos)” value (co-injected with Cas9/crRNA/tracrRNA, no donor) is given as “ICHR was observed in all edited cells”. Also, for the setting “compared to control embryos”, the indel-to-ICHR ratio entry is given as “drastic decrease” and the overall indel rate result is “drastic decrease”. Moreover, under setting [1], the indel-to-ICHR ratio entry was “significant decreases” and the overall indel rate result is “significant decreases”.
